Positions count from the first letter of the chain named. Names and notes keep the numbering of the source.
How the values were obtained:
[1] = substrate: NC(=O)c1ccc[n+]([C@@H]2O[C@H](COP(=O)(O)OP(=O)(O)OC[C@H]3O[C@@H](n4cnc5c(N)ncnc54)[C@H](O)[C@@H]3O)[C@@H](O)[C@H]2O)c1; experiment: GAPDH enzyme activity, coenzyme kinetics (NAD(P)H absorbance at 340 nm); format: biochemical, C. glutamicum; conditions: coenzyme varied, 25°C, pH 8.5, 1.5 mM glyceraldehyde-3-phosphate, 50 mM Na2HPO4, mean ± S.D.
Protocol: (§1) The above recombinant E. coli strains were cultured at 37°C in LB medium containing 100 mg/L kanamycine until an OD600 of 0.6 was reached. Then, (isopropyl-beta-D-thiogalactopyranoside (IPTG) was added to the medium to a final concentration of 0.1 mM, and the bacteria were cultured at 20°C for another 12-14 h. The E. coli cells were then harvested and washed and suspended in the buffer of 50 mM Na2HPO4 (pH 7.5), 0.2 mM EDTA and 0.1 mM dithiothreitol. Suspended cells were disrupted by sonication and centrifuged at 13.000 rpm for 1 h. The supernatant was purified by use of a Ni^2+ NTA column (GE Healthcare Bio-Sciences, Piscataway, NJ).
(§2) The enzyme activity of glyceraldehyde-3-phosphate dehydrogenase was determined by monitoring the change of NAD(P)H in absorbance at 340 nm at 25°C using a Multiskan® spectrophotometer (Thermo Scientific, Germany). Initial rate measurements were carried out in 50 mM triethanolamine hydrochloride buffer (pH 8.5), 0.2 mM EDTA, 50 mM Na2HPO4, 1.5 mM glyceraldehyde-3-phosphate (Clermont et al., 1993). When saturation could be reached, kinetic parameters were obtained from activity measurements with coenzyme concentrations ranging from 0.1 Km to 10 Km. Each rate measurement was run in triplicate. One unit of enzyme activity corresponds to one µmol of NAD(P)H formed per minute. Kinetic constants were obtained from non-linear regression data analysis and expressed as mean ± S.D.
(§3) The kinetic parameters determined for wild-type and mutated forms of glyceraldehyde-3-phosphate dehydrogenase are shown in Table 1. It can be seen that coenzyme specificity of glyceraldehyde-3-phosphate has been changed from NAD to NADP by the introduction of mutations at amino positions 35, 36, 37 and 192. More specifically, mutants comprising amino acid exchanges D35G/L36T/T37K, D35G/L36T/P192S, D35G/L36R/P192S, or D35G/L36T/T37K/P192S show a high catalytic efficiency and can utilize both NAD^+ and NADP^+. Table 1: Kinetic parameters of wild-type and mutated glyceraldehyde-3-phosphate dehydrogenase

[2] = substrate: NC(=O)c1ccc[n+]([C@@H]2O[C@H](COP(=O)(O)OP(=O)(O)OC[C@H]3O[C@@H](n4cnc5c(N)ncnc54)[C@H](OP(=O)(O)O)[C@@H]3O)[C@@H](O)[C@H]2O)c1; experiment: as above; format: biochemical, C. glutamicum; conditions: coenzyme varied, 25°C, pH 8.5, 1.5 mM glyceraldehyde-3-phosphate, 50 mM Na2HPO4, mean ± S.D.
Protocol: as §1, §2, §3

B1: C. glutamicum glyceraldehyde-3-phosphate dehydrogenase (gapA) variant D35G/L36T/T37K (Corynebacterium glutamicum ATCC 13032; D35G/L36T/T37K) (protein)
chain: MTIRVGINGFGRIGRNFFRAVLERSDDLEVVAVNGTKDNKTLSTLLKFDSIMGRLGQEVEYDDDSITVGGKRIAVYAERDPKNLDWAAHNVDIVIESTGFFTDANAAKAHIEAGAKKVIISAPASNEDATFVYGVNHESYDPENHNVISGASCTTNCLAPMAKVLNDKFGIENGLMTTVHAYTGDQRLHDAPHRDLRRARAAAVNIVPTSTGAAKAVALVLPELKGKLDGYALRVPVITGSATDLTFNTKSEVTVESINAAIKEAAVGEFGETLAYSEEPLVSTDIVHDSHGSIFDAGLTKVSGNTVKVVSWYDNEWGYTCQLLRLTELVASKL
notes: His-tag (inferred: pET-28a+ NdeI cloning, Ni-NTA purification) (N); His-tag (inferred: reverse primer has no stop codon and reads in frame into the vector's C-terminal His-tag) (C); made in house; host or cells: E. coli BL21 (DE3) CodonPlus RIPL
[1]; other: D35G/L36T/T37K
  Km: 470 ± 32 µM
  kcat: 4.2 ± 0.55 s⁻¹
  kcat/Km: 536 ± 48 mM/min
[2]; other: D35G/L36T/T37K
  Km: 100 ± 12 µM
  kcat: 8 ± 0.6 s⁻¹
  kcat/Km: 4800 ± 232 mM/min

B2: C. glutamicum glyceraldehyde-3-phosphate dehydrogenase (gapA), Wild-type, SEQ ID NO:1 (Corynebacterium glutamicum ATCC 13032) (protein)
chain: B1 chain with G35D, T36L, K37T
notes: as for B1
[1]; other: Wild-type
  Km: 48 ± 2 µM
  kcat: 6.45 ± 0.467 s⁻¹
  kcat/Km: 8063 ± 540 mM/min

B3: C. glutamicum glyceraldehyde-3-phosphate dehydrogenase (gapA) variant D35G/L36T (Corynebacterium glutamicum ATCC 13032; D35G/L36T) (protein)
chain: B1 chain with K37T
notes: as for B1
[1]; other: D35G/L36T
  Km: 220 ± 38 µM
  kcat: 4.77 ± 0.617 s⁻¹
  kcat/Km: 1300 ± 154 mM/min
[2]; other: D35G/L36T
  Km: 280 ± 16 µM
  kcat: 5.87 ± 0.867 s⁻¹
  kcat/Km: 1257 ± 118 mM/min

B4: C. glutamicum glyceraldehyde-3-phosphate dehydrogenase (gapA) variant D35G (Corynebacterium glutamicum ATCC 13032; D35G) (protein)
chain: B1 chain with T36L, K37T
notes: as for B1
[1]; other: D35G
  Km: 540 ± 70 µM
  kcat: 6.37 ± 0.533 s⁻¹
  kcat/Km: 707 ± 82 mM/min
[2]; other: D35G
  Km: 830 ± 120 µM
  kcat: 2.97 ± 0.183 s⁻¹
  kcat/Km: 215 ± 22 mM/min

B5: C. glutamicum glyceraldehyde-3-phosphate dehydrogenase (gapA) variant D35G/L36R (Corynebacterium glutamicum ATCC 13032; D35G/L36R) (protein)
chain: B1 chain with T36R, K37T
notes: as for B1
[1]; other: D35G/L36R
  Km: 180 ± 17 µM
  kcat: 3.4 ± 0.367 s⁻¹
  kcat/Km: 1134 ± 132 mM/min
[2]; other: D35G/L36R
  Km: 310 ± 34 µM
  kcat: 5.8 ± 0.433 s⁻¹
  kcat/Km: 1123 ± 176 mM/min

B6: C. glutamicum glyceraldehyde-3-phosphate dehydrogenase (gapA) variant D35G/L36T/P192S (Corynebacterium glutamicum ATCC 13032; D35G/L36T/P192S) (protein)
chain: B1 chain with K37T, P192S
notes: as for B1
[1]; other: D35G/L36T/P192S
  Km: 120 ± 4 µM
  kcat: 3.78 ± 0.283 s⁻¹
  kcat/Km: 1952 ± 113 mM/min
[2]; other: D35G/L36T/P192S
  Km: 70 ± 3 µM
  kcat: 6.58 ± 0.467 s⁻¹

B7: C. glutamicum glyceraldehyde-3-phosphate dehydrogenase (gapA) variant D35G/L36T/T37K/P192S (Corynebacterium glutamicum ATCC 13032; D35G/L36T/P192S/T37K) (protein)
chain: B1 chain with P192S
notes: as for B1
[1]; other: D35G/L36T/T37K/P192S
  Km: 100 ± 14 µM
  kcat: 2.73 ± 0.2 s⁻¹
  kcat/Km: 1640 ± 108 mM/min
[2]; other: D35G/L36T/T37K/P192S
  Km: 70 ± 3 µM
  kcat: 7.13 ± 0.75 s⁻¹
  kcat/Km: 5868 ± 352 mM/min

B8: C. glutamicum glyceraldehyde-3-phosphate dehydrogenase (gapA) variant D35G/L36R/P192S (Corynebacterium glutamicum ATCC 13032; D35G/L36R/P192S) (protein)
chain: B1 chain with T36R, K37T, P192S
notes: as for B1
[1]; other: D35G/L36R/P192S
  Km: 58 ± 2 µM
  kcat: 2.87 ± 0.183 s⁻¹
  kcat/Km: 2954 ± 228 mM/min
[2]; other: D35G/L36R/P192S
  Km: 100 ± 12 µM
  kcat: 6.48 ± 0.617 s⁻¹
  kcat/Km: 3885 ± 247 mM/min

— patent EP2559758A1, “Modified glyceraldehyde-3-phosphate dehydrogenase from corynebacterium glutamicum and uses thereof” (Technische Universität Hamburg-Harburg, priority 2011, dated 2013)
